Measurements reported in doi:10.1101/557116 (bioRxiv, 2019).
Positions count from the first letter of the chain named. Names and notes keep the numbering of the source.

B1: BST2 ectodomain (residues 47 to 159) WT (domain or fragment, human, UniProt Q10589 47-159, looked up)
chain: KANSEACRDGLRAVMECRNVTHLLQQELTEAQKGFQDVEAQAATCNHTVMALMASLDAEKAQGQKKVEELEGEITTLNHKLQDASAEVERLRRENQVLSVRIADKKYYPSSQD
B2: BST2 ectodomain (residues 47 to 159) R136A (domain or fragment, human, UniProt Q10589 47-159, looked up)
chain: B1 chain with R90A
B3: BST2 ectodomain (residues 47 to 159) L70D (domain or fragment, human, UniProt Q10589 47-159, looked up)
chain: B1 chain with L24D
B4: BST2 ectodomain (residues 47 to 159) D129A (domain or fragment, human, UniProt Q10589 47-159, looked up)
chain: B1 chain with D83A
B5: BST2 ectodomain (residues 47 to 159) L127C (domain or fragment, human, UniProt Q10589 47-159, looked up)
chain: B1 chain with L81C
B6: BST2 ectodomain (residues 47 to 159) T90P (domain or fragment, human, UniProt Q10589 47-159, looked up)
chain: B1 chain with T44P
B7: BST2 ectodomain (residues 47 to 159) Q87H (domain or fragment, human, UniProt Q10589 47-159, looked up)
chain: B1 chain with Q41H
B8: GST-BST2 (80-147) (domain or fragment, human, UniProt Q10589 80-147, looked up)
chain: GFQDVEAQAATCNHTVMALMASLDAEKAQGQKKVEELEGEITTLNHKLQDASAEVERLRRENQVLSVR

Tests used:
bacILT7 24-223 = bacILT7 24-223 (human, UniProt P59901 24-223, fluorescent label (Protein Labeling Kit RED-NHS)); assay: MST
cross-linking = target: the molecule itself; assay: cross-linking
bacILT7 24-435 = bacILT7 24-435 (human, UniProt P59901 24-435); assay: SPR
bacILT7 24-435, sequence (P59901 24-435): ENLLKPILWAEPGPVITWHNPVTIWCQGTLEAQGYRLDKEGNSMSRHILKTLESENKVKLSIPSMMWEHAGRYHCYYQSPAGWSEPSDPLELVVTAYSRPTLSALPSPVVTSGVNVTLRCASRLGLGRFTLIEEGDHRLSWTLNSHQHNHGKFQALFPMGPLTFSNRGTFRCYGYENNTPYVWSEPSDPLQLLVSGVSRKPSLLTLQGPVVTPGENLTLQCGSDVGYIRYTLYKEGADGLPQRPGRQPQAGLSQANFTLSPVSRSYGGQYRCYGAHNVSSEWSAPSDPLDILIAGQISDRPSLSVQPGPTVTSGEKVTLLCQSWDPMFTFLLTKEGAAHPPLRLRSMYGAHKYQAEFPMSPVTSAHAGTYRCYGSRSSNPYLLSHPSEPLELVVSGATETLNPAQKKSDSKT

bacILT7 24-223, sequence (P59901 24-223): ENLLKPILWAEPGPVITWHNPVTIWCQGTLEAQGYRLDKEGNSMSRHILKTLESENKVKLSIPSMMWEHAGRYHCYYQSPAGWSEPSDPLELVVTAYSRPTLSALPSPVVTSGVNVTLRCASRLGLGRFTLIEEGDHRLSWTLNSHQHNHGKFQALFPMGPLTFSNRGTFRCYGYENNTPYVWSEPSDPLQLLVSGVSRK

| Binder | Kd (bacILT7 24-223) [µM] | also measured |
| --- | --- | --- |
| B1 | 2.45 ± 0.3 |  |
| B2 |  | stoichiometry N (cross-linking): 2 |
| B3 | 5.55 ± 1 |  |
| B4 |  | stoichiometry N (cross-linking): 2 |
| B5 | 6.45 ± 1.2 |  |
| B6 | 4.49 ± 0.9 |  |
| B7 | 5.06 ± 1.1 |  |
| B8 |  | Kd (bacILT7 24-435): 2.62 µM; koff (bacILT7 24-435): 0.00238 s⁻¹; kon (bacILT7 24-435): 908 M⁻¹ s⁻¹ |
